Measurements taken from patent US20220047716A1 (SUTRO BIOPHARMA, published 2022).
Substitutions are numbered along the chain they refer to. Names and notes keep the numbering of the source.

B1: ADC Molecule 4 (1848-H01 FolRα antibody, Y180/F404, Conjugate P) (antibody, V domains shown)
VH: EVQLVESGGGLVQPGGSLRLSCAASGFNIRTQSIHWVRQAPGKGLEWIGDIFPIDGITDYADSVKGRFTISADTSKNTAYLQMNSLRAEDTAVYYCARGSWSWPSGMDYYLDYWGQGTLVTVSS
VL: not shown
modifications: non-natural amino acids at HC-Y180 and HC-F404, each conjugated to the cleavable hemiasterlin linker-drug (Conjugate P); both sites lie in the constant region, outside the VH entry
B2: SRP1848-E03 (antibody, V domains shown)
VH: EVQLVESGGGLAQPGGSLRLSCAASGFNIGNYYIHWVRQAPGKGLEWVGGITPRDGFTDYADSVKGRFTISADTSKNTAYLQVNSLRAEDTAVYYCARGSWSWPAGHSYYLDYWGQGTLVTVSS
VL: not shown
B3: SRP1848-E06 (antibody, V domains shown)
VH: EVQLVESGGGLVQPSGSLRLSCAASGFNINRYYIHWVRQAPGKGLEWVGGITPNDGYTDYADSVEGRFTTSADTSKNTAYLQMNSLRAEDTAVYYCARGTWSWPSGHSYYLDYWGQGTLVTVSS
VL: not shown
B4: SRP1848-G09 (antibody, V domains shown)
VH: EVQLVESGGGLVQPGGSLRLSCAASGFNIRGTDIHWVRQAPGKGLEWVAYITPAGGATFYADSVKGRFTISADTSKNTAYLQMNSLRAEDTAVYYCARHEYWFSGYMDYWGQGTLVTVSS
VL: not shown
B5: SRP1848-G11 (antibody, V domains shown)
VH: B4 VH with R30S, G31S, F59W, H99Y, E100P
VL: not shown
B6: SRP1848-G10 (antibody, V domains shown)
VH: B4 VH with G16S, G31S, F59Y, H99Y, E100P, S104A, M107I
VL: not shown
B7: SRP2060-E10 (antibody, V domains shown)
VH: EVQLLESGGGLVQPGGSLRLSCAFSGFSLSTFGMGVGWVRQAPGKGLEWVSHIWWDDDKYYHPALKGRFTISKDNSKNTVYLQMNSLRAEDTAVYYCGRNHFPHYYGSSHWYFNVWGQGTTVTVSS
VL: EIVMTQSPATLSLSPGERATLSCKASQDINSYLSWYQQKPGQAPRLLIYRANRLVDGIPARFSGSGSGTDYTLTISSLEPEDFAVYYCLQYDEFPYTFGGGTKVEIK
B8: SRP2060-B01 (antibody, V domains shown)
VH: B7 VH with F24L, P43T, Y81H
VL: DIQMTQSPSTLSASVGDRVTITCKASQDINSYLSWYQQKPGKAPKLLIYRANRLVDGVPSRFSGSGSGTEFTLTISSLQPDDFATYYCLQYDEFPYTFGGGTKVEIK
B9: SRP2060-E05 (antibody, V domains shown)
VH: B7 VH with I71V
VL: B7 VL
B10: SRP2060-A06 (antibody, V domains shown)
VH: B7 VH with S51G, H62Y, N114D
VL: B8 VL
B11: ADC Molecule 4 (antibody, V domains shown)
VH: B1 VH
VL: not shown
modifications: non-natural amino acids at HC-Y180 and HC-F404 (constant region, outside this VH entry) linked to cleavable hemiasterlin linker-drug (Conjugate P), DAR about 3.7-3.8
B12: ADC Molecule 23 (antibody 1848-H01 V262E, Y180/F404, Conjugate P) (antibody, V domains shown)
VH: B1 VH
VL: not shown
modifications: non-natural amino acid (pAMF) at heavy chain constant sites HC-Y180 and HC-F404 (EU numbering), each conjugated to cleavable hemiasterlin linker-drug (Conjugate P); DAR 3.57
B13: ADC Molecule 24 (antibody 1848-H01 V262E, Y180/F404, Conjugate Q) (antibody, V domains shown)
VH: B1 VH
VL: not shown
modifications: non-natural amino acid (pAMF) at heavy chain constant sites HC-Y180 and HC-F404 (EU numbering), each conjugated to cleavable (ValAla) hemiasterlin linker-drug (Conjugate Q); DAR 3.76
B14: ADC Molecule 4 (antibody 1848-H01, Y180/F404, Conjugate P) (antibody, V domains shown)
VH: B1 VH
VL: not shown
modifications: non-natural amino acid (para-azidomethyl-L-phenylalanine, pAMF) at heavy chain constant sites HC-Y180 and HC-F404 (EU numbering), each conjugated to cleavable hemiasterlin linker-drug (Conjugate P); DAR 3.73
B15: ADC Molecule 20 (antibody 1848-H01, Y180/F404, Conjugate Q) (antibody, V domains shown)
VH: B1 VH
VL: not shown
modifications: non-natural amino acid (pAMF) at heavy chain constant sites HC-Y180 and HC-F404 (EU numbering), each conjugated to cleavable (ValAla) hemiasterlin linker-drug (Conjugate Q); DAR 3.81

Each binder was assayed against human folate receptor beta (hFolRβ) (human, UniProt P14207 17-230) (assay: cell-based or functional assay).
human folate receptor beta (hFolRβ), sequence (P14207 17-230): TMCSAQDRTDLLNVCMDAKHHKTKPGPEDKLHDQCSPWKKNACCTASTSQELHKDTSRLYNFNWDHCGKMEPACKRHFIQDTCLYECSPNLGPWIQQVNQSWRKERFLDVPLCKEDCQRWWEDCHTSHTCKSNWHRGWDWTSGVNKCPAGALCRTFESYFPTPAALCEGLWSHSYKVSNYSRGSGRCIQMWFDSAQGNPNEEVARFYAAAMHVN

| Binder | cytotoxic activity on 293T cells expressing FolRβ, EC50 |
| --- | --- |
| B1 | ~100000 pM |

What follows are binders tested against human folate receptor alpha (hFolRα) on cells (human, UniProt P15328 25-234) (assay: cell-based or functional assay).
human folate receptor alpha (hFolRα) on cells, sequence (P15328 25-234 limits assumed): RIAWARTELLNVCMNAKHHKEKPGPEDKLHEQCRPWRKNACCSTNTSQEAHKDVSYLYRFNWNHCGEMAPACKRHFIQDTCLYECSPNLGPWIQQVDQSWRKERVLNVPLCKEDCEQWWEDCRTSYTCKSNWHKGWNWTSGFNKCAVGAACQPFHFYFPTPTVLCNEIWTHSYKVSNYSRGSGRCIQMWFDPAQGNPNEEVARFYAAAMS

| Binder | cytotoxic activity on 293T cells expressing FolRα, EC50 |
| --- | --- |
| B1 | < 10000 pM |

Each binder was assayed against human folate receptor alpha (hFOLR1) (human, UniProt P15328 25-234) (assay: cell-based or functional assay).
human folate receptor alpha (hFOLR1), sequence (P15328 25-234 limits assumed): as above

| Binder | Igrov 2° antibody cell killing EC50 | Igrov 2° antibody cell killing Span | KB 2° antibody cell killing EC50 | KB 2° antibody cell killing Span |
| --- | --- | --- | --- | --- |
| B2 | 27 pM | 73% | 57 pM | 94% |
| B3 | 25 pM | 74% |  | 93% |
| B4 | 36 pM | 83% | 73 pM | 97% |
| B5 | 23 pM | 84% | 40 pM | 97% |
| B6 | 19 pM | 79% | 46 pM | 97% |

These binders were tested against T1, human folate receptor alpha (hFOLR1) on cells (human, UniProt P15328 25-234) (assay: cell-based or functional assay).
T1 sequence (P15328 25-234 limits assumed): as above

| Binder | Igrov 2° Antibody Cell Killing, Nb-SC239, EC50 | Igrov 2° Antibody Cell Killing, Nb-SC239, span |
| --- | --- | --- |
| B7 | 61 pM | 68% |
| B8 | 45 pM | 76% |
| B9 | 220 pM | 71% |
| B10 | 13 pM | 66% |

Target: T1, human folate receptor alpha (hFOLR1) on …
Assay: cell-based or functional assay
Remark: another data set of the same source

| Binder | cytotoxic activity on Igrov1 cells in the presence of 0.5 µM un-conjugated 1848-H01, EC50 | cytotoxic activity on OVCAR3 cells in the presence of 0.5 µM un-conjugated 1848-H01, EC50 |
| --- | --- | --- |
| B11 | > 33000 pM | > 33000 pM |

The binders below were run against Human folate receptor alpha (hFOLR1) (human, UniProt P15328 25-234) (assay: cell-based or functional assay).
Human folate receptor alpha (hFOLR1), sequence (P15328 25-234 limits assumed): as above

| Binder | Cell Killing (Igrov1) EC50 | Cell Killing (Igrov1) Span |
| --- | --- | --- |
| B12 | 88 pM | 72% |
| B13 | 190 pM | 56% |
| B14 | 83 pM | 80% |
| B15 | 130 pM | 70% |
